Data reported in US20250326855A1 (GO THERAPEUTICS, published 2025).
Where no end group is shown, it is not given here. GalNAc = O-linked GalNAc (Tn antigen, GalNAc-alpha1-O-Ser/Thr)

T1: CD44v6 glycopeptide … with O-linked GalNAc on threonine 5 and serine 12 (human)
T1 construct: Synthetic glycopeptide; also called CD44v6-Tn(S + T); Tn-glycosylated CD44v6 glycopeptide
T1 peptide: GYRQT(GalNAc)PKEDSHS(GalNAc)TTGTAAA

T2: CD44v6 peptide glycoform with Tn on serine only (human)
T2 construct: also called CD44v6-Tn(S)
T2 peptide: GYRQTPKEDSHS(GalNAc)TTGTAAA


Columns and labels:
[1] = biological target: T1, CD44v6 glycopeptide … with O-linked …; assay: hybridoma screening (ELISA, flow cytometry, immunofluorescence)
[2] = biological target: T1, CD44v6 glycopeptide … with O-linked …; assay: BLI (Octet); biotinylated peptide on biosensor, antibody in solution
Description: (§1) The affinities of humanized 4C8 candidates 1-8 against the CD44v6 glycopeptide and a MUC1 glycopeptide were measured using by bio-layer interferometry (BLI) using an Octet system. The peptides were immobilized onto the biosensor by biotin (ligand) and antibodies were in solution (analyte). Candidate 8(4C8-HV7-4-1-A/LV7-46-A) was most similar to the original […] antibody and was selected for further testing. Table 13 summarizes the dissociation constants (KD) for the noted humanized 4C8 candidates against the glycopeptides.

[3] = biological target: T3, MUC1 glycopeptide (MUC1-Tn) (UniProt P15941 138-197, limits assumed, Tn (GalNAc) glycosylated; sites not stated in the examples); assay: as above
T3 sequence (P15941 138-197 limits assumed): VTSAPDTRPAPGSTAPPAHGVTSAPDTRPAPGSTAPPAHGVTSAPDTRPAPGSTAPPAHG
Description: as §1

[4] = biological target: Tn-glycosylated CD44 (human) (UniProt P16070); assay: ELISA, antibody fixed at 1 ug/mL, coated antigen CD44_10-G(S1T1)-BSA titrated
[5] = biological target: T3, MUC1 glycopeptide (MUC1-Tn); assay: Biacore, column 'Affinity (Biacore)', row MUC1-Tn
[6] = biological target: T1, CD44v6 glycopeptide … with O-linked …; assay: SPR (Biacore); Biacore, not Octet
[7] = biological target: T1, CD44v6 glycopeptide … with O-linked …; assay: BLI (Octet); biotinylated peptide on biosensor, antibody in solution; Table 13 Octet run with the humanized candidates; 4C8-cAb (mouse) as reference
Description: as §1

[8] = biological target: T2, CD44v6 peptide glycoform with Tn on …; assay: BLI (Octet)
[9] = biological target: T1, CD44v6 glycopeptide … with O-linked …; assay: BLI (Octet), apparent affinity with avidity factored in

Row | Binder | binding result [1] | Kd [2] [nM] | other results
1 | 10H4 antibody (antibody, V domains shown, Rabbit monoclonal antibody) VH: QSLEESGGRLVTPGTPLTLTCTASGFTINTYHMGWFRQAPGKGLQYIGIVSHDVGTYYATWAKGRFTISKTSSTTVDLRMPSPTTEDTATYICARGPGYWTFNLWGQGTLVTVSS VL: AQVLTQTPASVSAAVGGTVTINCQASQSVYNNNQLSWYQQKPGQPLKQLIYKASTLASGVPSRFKGSGSGSQFTLTISDLECDDAATYFCAGGYKGDIHPFGGGTEVVVK | binds | – | –
2 | 1D12 antibody (antibody, V domains shown, Murine monoclonal antibody) VH: DVQLVESGGGLVQPGGSRKLSCAASGFTFSSFGIHWVRQAPEKGLEWVAYISSGSSTIYYADTVKGRFTISRDNPKNTLFLQMTSLRSEDTAMYYCARGSKVVAKSRGYWYFDVWGAGTTVTVSS VL: DVVVTQTPLFLPVSFGDQVSISCRSSQSLANNYGITYLSWYLHRPGQSPQLLIYGISNRFSGVPDRFSGSGSGTDFTLKISTIKPEDLGMYYCLQGTHQPWTFGGGTKLEIK | binds | – | –
3 | 18G9 antibody (antibody, V domains shown, Murine monoclonal antibody) VH: DVQLVESGGGLVQPGGSRKLSCAASGFTFSSFGMHWVRQAPEKGLEWVAYISSGSSTIYYADTVKGRFTISRDNPKNTLFLQMTSLRSEDTAMYYCARGSYRAMDYWGQGTSVTVSS VL: QIVLTQSPALMSASPGEKVTMTCSASSSVNYMFWYQQKPRSSPKPWIYLTSNLASGVPARFSGSGSGTSYSLTISSMEAEDAATYYCQLWSSNPFTFGSGTKLEIK | binds | – | –
4 | humanized 4C8 candidate 2 (4C8-HV1-46-A/LV7-43-A) (antibody, V domains shown, also called Molecule Number 2) VH: QVQLVQSGAEVKKPGASVKVSCKASGYTFTSYWMHWVRQAPGQGLEWIGNIYPRSGTTNYDGYFKSRATLTVDTSTSTAYMELSSLRSEDTAVYFCTRSGYDYPFVYWGQGTLVTVSS VL: QAVVTQEPSLTVSPGGTVTLTCRTSTGAVSIRNYANWVQEKPGQAFRGLIGGTNNRAPWTPARFSGSLLGDKAALTLSGVQPEDEAEYFCALLYSNYWVFGGGTKLTVL | – | 194 | –
5 | humanized 4C8 candidate 1 (4C8-HV1-18-A/LV7-43-A) (antibody, V domains shown, also called Molecule Number 1) VH: QVQLVQSGAEVKKPGASVKVSCKASGYTFTSYWMHWVRQAPGQGLEWIGNIYPRSGTTNYDGYFKSRATLTVDTSTSTAYMELRSLRSDDTAVYFCTRSGYDYPFVYWGQGTLVTVSS VL: QAVVTQEPSLTVSPGGTVTLTCRTSTGAVSIRNYANWVQEKPGQAFRGLIGGTNNRAPWTPARFSGSLLGDKAALTLSGVQPEDEAEYFCALLYSNYWVFGGGTKLTVL | – | 191 | EC50 (read off the curve) [4]: 0.02 µg/mL
6 | humanized 4C8 candidate 6 (4C8-HV1-46-A/LV7-46-A) (antibody, V domains shown, also called Molecule Number 6) VH: QVQLVQSGAEVKKPGASVKVSCKASGYTFTSYWMHWVRQAPGQGLEWIGNIYPRSGTTNYDGYFKSRATLTVDTSTSTAYMELSSLRSEDTAVYFCTRSGYDYPFVYWGQGTLVTVSS VL: QAVVTQEPSLTVSPGGTVTLTCRTSTGAVSIRNYANWVQEKPGQAFRGLIGGTNNRAPWTPARFSGSLLGDKAALTLSGAQPEDEAEYFCALLYSNYWVFGGGTKLTVL | – | 169 | binding result [3]: no binding (tested: affinity was below the detection limits)
7 | humanized 4C8 candidate 3 (4C8-HV1-69-A/LV7-43-A) (antibody, V domains shown, also called Molecule Number 3) VH: QVQLVQSGAEVKKPGSSVKVSCKASGYTFTSYWMHWVRQAPGQGLEWIGNIYPRSGTTNYDGYFKSRATLTVDTSTSTAYMELSSLRSEDTAVYFCTRSGYDYPFVYWGQGTLVTVSS VL: QAVVTQEPSLTVSPGGTVTLTCRTSTGAVSIRNYANWVQEKPGQAFRGLIGGTNNRAPWTPARFSGSLLGDKAALTLSGVQPEDEAEYFCALLYSNYWVFGGGTKLTVL | – | 161 | –
8 | 4C8 monoclonal antibody (antibody, V domains shown, Murine hybridoma antibody; also called 4C8 mAb; mAb 4C8) VH: QVQLQQPGSELVRPGASVKLSCKASGYTFTSYWMHWVKQRPGQGLEWIGNIYPRSGTTNYDGYFKSKATLTVDTSSSTAYMQLSSLTSEDSAVYFCTRSGYDYPFVYWGQGTLVTVSA VL: QAVVTQESALTTSPGETVTLTCRTSTGAVSIRNYANWVQEKPDHLFTGLIGGTNNRAPGVPARFSGSLIGDKAALTITGAQPEDEAIYFCALLYSNYWVFGGGTKLTVL | – | – | Kd [5]: > 400 nM; Kd [6]: 128 nM; Kd [7]: 163 nM; Kd [8]: 6.4 nM; EC50 (read off the curve) [4]: 0.02 µg/mL; Kd [9]: 7.9 nM

Second part, led by results:

Row | binding result [1] | Kd [2] [nM] | Binder | other results
9 | binds | – | 2B2 antibody (antibody, V domains shown, Murine monoclonal antibody) VH: EVQLVESGGGLVKPGGSLKLSCAASGFTFSSYAMSWVRQSPERRLEWVAEISSGGSYTYYPDTVTGRFTISRDNAKNTLYLEMSSLRSEDTAMYYCARTVGEDWYFDVWGAGTTVTVSS VL: DIQMTQTTSSLSASLGDRVTISCRASQDISHYLNWYQQKPDGAVKLLIYSTSRLHSGVPSRFSGSGSGTDYSLTISNLEQEDIATYFCQQGYTLPFTFGSGTKLEIK | –
10 | – | 183 | humanized 4C8 candidate 7 (4C8-HV1-69-A/LV7-46-A) (antibody, V domains shown, also called Molecule Number 7) VH: QVQLVQSGAEVKKPGSSVKVSCKASGYTFTSYWMHWVRQAPGQGLEWIGNIYPRSGTTNYDGYFKSRATLTVDTSTSTAYMELSSLRSEDTAVYFCTRSGYDYPFVYWGQGTLVTVSS VL: QAVVTQEPSLTVSPGGTVTLTCRTSTGAVSIRNYANWVQEKPGQAFRGLIGGTNNRAPWTPARFSGSLLGDKAALTLSGAQPEDEAEYFCALLYSNYWVFGGGTKLTVL | binding result [3]: no binding (tested: affinity was below the detection limits); EC50 (read off the curve) [4]: 0.02 µg/mL
11 | – | 177 | humanized 4C8 candidate 5 (4C8-HV1-18-A/LV7-46-A) (antibody, V domains shown, also called Molecule Number 5) VH: QVQLVQSGAEVKKPGASVKVSCKASGYTFTSYWMHWVRQAPGQGLEWIGNIYPRSGTTNYDGYFKSRATLTVDTSTSTAYMELRSLRSDDTAVYFCTRSGYDYPFVYWGQGTLVTVSS VL: QAVVTQEPSLTVSPGGTVTLTCRTSTGAVSIRNYANWVQEKPGQAFRGLIGGTNNRAPWTPARFSGSLLGDKAALTLSGAQPEDEAEYFCALLYSNYWVFGGGTKLTVL | –
